Laboratory results from US20220411504A1 (Janssen / Centocor, published 2022).

T1: DLL3 on tumor cells (SHP-77, HCC1833, G361) (human, UniProt Q9NYJ7 27-618)
T1 sequence: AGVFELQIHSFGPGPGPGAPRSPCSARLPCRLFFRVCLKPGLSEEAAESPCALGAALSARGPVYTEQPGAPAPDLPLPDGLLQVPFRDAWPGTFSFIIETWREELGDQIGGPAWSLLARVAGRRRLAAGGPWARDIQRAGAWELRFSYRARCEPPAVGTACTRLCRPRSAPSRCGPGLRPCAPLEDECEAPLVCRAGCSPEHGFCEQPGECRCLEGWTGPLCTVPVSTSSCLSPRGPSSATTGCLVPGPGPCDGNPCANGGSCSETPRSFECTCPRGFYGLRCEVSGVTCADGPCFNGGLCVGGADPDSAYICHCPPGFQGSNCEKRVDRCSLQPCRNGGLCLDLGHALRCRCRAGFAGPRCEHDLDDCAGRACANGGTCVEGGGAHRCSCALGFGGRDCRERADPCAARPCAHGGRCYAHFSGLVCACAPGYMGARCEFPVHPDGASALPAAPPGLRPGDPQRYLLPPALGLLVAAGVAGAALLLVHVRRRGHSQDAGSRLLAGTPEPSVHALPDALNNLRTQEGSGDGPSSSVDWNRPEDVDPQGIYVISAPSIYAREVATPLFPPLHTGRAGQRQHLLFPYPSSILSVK

T2: recombinant human DLL3 (human, UniProt Q9NYJ7 27-492)
T2 construct: also called DLL3 antigen; Delta-like protein 3
T2 sequence: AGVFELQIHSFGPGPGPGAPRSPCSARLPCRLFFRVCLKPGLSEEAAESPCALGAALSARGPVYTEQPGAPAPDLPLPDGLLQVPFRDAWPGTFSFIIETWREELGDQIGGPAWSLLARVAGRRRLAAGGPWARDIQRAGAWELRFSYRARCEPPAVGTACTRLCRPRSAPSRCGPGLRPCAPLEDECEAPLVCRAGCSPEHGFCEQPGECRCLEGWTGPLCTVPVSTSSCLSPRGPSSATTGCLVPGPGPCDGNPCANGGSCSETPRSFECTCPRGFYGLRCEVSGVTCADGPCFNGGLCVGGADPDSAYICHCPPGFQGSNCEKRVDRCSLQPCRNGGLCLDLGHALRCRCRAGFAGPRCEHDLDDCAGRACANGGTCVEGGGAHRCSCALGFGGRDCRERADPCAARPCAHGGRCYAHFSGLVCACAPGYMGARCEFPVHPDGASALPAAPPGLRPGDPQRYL


Legend:
[1] = biological target: T3, MHGW8 (B2m-3(G4S)-HLA-G1-G4S-Avi) (human, biotinylated (Avi tag) in the blocking assay); test: flow cytometry competition: blocks MHGW8-dextramer binding to ILT2 on HEK293T cells (competitor ILT2)
T3 construct: Single chain β2m-HLA-G1; also called soluble HLA-G1 extracellular domain; recombinant biotinylated HLA-G1

[2] = biological target: T3, MHGW8 (B2m-3(G4S)-HLA-G1-G4S-Avi); test: flow cytometry competition: blocks MHGW8-dextramer binding to ILT4 on HEK293T cells (competitor ILT4)
[3] = biological target: T3, MHGW8 (B2m-3(G4S)-HLA-G1-G4S-Avi); test: SPR, mAb captured by goat anti-human Fc, MHGW8 flowed
[4] = biological target: T4, HLA-G on cells (K562-HLA-G and HLA-G expressing tumor cells) (human); test: flow cytometry, IgG1 mAb on cells expressing HLA-G
T4 construct: whole, on cells; also called HLA-G1

[5] = biological target: T1, DLL3 on tumor cells (SHP-77, HCC1833, …); test: cell-based or functional assay
[6] = biological target: T2, recombinant human DLL3; test: SPR (Biacore T200), antibody captured by goat anti-Fc, DLL3 titrated

EC50 [1] [nM] | EC50 [2] [nM] | Kd [3] [nM] | koff [3] [s⁻¹] | kon [3] [M⁻¹ s⁻¹] | GeoMean fluorescence (maximum value) [4] | Kd [6] [nM] | Binder | Cytotoxicity, % lysis of SHP-77 cells (whole PBMCs, 1:1 ET, 30 nM) [5] [%]
644 | 200 | 1.15 | 0.0024 | 2.08e+06 | 473000 | – | MHGB694 (antibody, human IgG1, kappa, V domains shown, IgG1) VH: EVQLLESGGGLVQPGGSLRLSCAASGFTFSSYAMHWVRQAPGKGLDWVSGISGSGFSTYYVDSVKGRFTISRDNSKHTLYLQMNSLRAEDTAVYYCAKDNLVAGTVFDYWGQGTLVTVSS VL: not shown | –
1720 | 1420 | 0.4 | 0.000263 | 658000 | 482000 | – | MHGB688 (antibody, human IgG1, kappa, V domains shown, IgG1) VH: EVQLLESGPGLVKPSQTLSLTCVISGDSVSSNRAAWNWIRQSPSRGLEWLGRTYYRSKWYNDYAVSVKSRITINSDTSKNQISLQLNSVTPEDTAVYYCARVRPGIPFDYWGQGTPVTVSS VL: not shown | –
2120 | 1610 | 0.55 | 0.00179 | 3.25e+06 | 522000 | – | MHGB672 (antibody, human IgG1, kappa, V domains shown, IgG1) VH: QVQLQQSGPGLVKPSQTLSLTCAISGDSVSSNRAAWNWIRQTPSRGLEWLGRTYYRSEWYNDYAVSVKSRITINPDTSKNQFSLQLNSVTPEDTAVYYCARVRAAVPFDYWGQGTLVTVSS VL: not shown | –

Further lines, the binder ahead of its results:

Binder | EC50 [1] [nM] | EC50 [2] [nM] | Kd [3] [nM] | koff [3] [s⁻¹] | kon [3] [M⁻¹ s⁻¹] | GeoMean fluorescence (maximum value) [4] | Kd [6] [nM] | Cytotoxicity, % lysis of SHP-77 cells (whole PBMCs, 1:1 ET, 30 nM) [5] [%]
DL3B582 (bispecific antibody, also called CD3W245-LH-scFv; DL3B279-Fab) heavy: QVQLVQSGAEVKKPGASVKVSCKASGNTFTNYYIHWVRQAPGQGLEWMGIINPSGGSTSYAQKLQGRMTMTRDTSTSTVYMELSSLRSEDTAVYFCARQGPFIGDAFDIWGQGTMVTVSSASTKGPSVFPLAPSSKSTSGGTAALGCLVKDYFPEPVTVSWNSGALTSGVHTFPAVLQSSGLYSLSSVVTVPSSSLGTQTYICNVNHKPSNTKVDKKVEPKSCDKTHTCPPCPAPEAAGGPSVFLFPPKPKDTLMISRTPEVTCVVVSVSHEDPEVKFNWYVDGVEVHNAKTKPREEQYNSTYRVVSVLTVLHQDWLNGKEYKCKVSNKALPAPIEKTISKAKGQPREPQVYVLPPSREEMTKNQVSLLCLVKGFYPSDIAVEWESNGQPENNYLTWPPVLDSDGSFFLYSKLTVDKSRWQQGNVFSCSVMHEALHNHYTQKSLSLSPG light: DIQMTQSPSSLSASVGDRVTITCRASQGISNYLAWFQQKPGKAPKSLIYAASSLQSGVPSKFSGSGSGTDFTLTISSLQPEDFATYYCQQYNSYPYTFAQGTKLEIKRTVAAPSVFIFPPSDEQLKSGTASVVCLLNNFYPREAKVQWKVDNALQSGNSQESVTEQDSKDSTYSLSSTLTLSKADYEKHKVYACEVTHQGLSSPVTKSFNRGEC scFv: DIQMTQSPSSLSASVGDRVTITCRARQSIGTAIHWYQQKPGKAPKLLIKYASESISGVPSRFSGSGSGTDFTLTISSLQPEDFATYYCQQSGSWPYTFGQGTKLEIKGGSEGKSSGSGSESKSTGGSEVQLVESGGGLVKPGGSLRLSCAASGFTFSRYNMNWVRQAPGKGLEWVSSISTSSNYIYYADSVKGRFTFSRDNAKNSLDLQMSGLRAEDTAIYYCTRGWGPFDYWGQGTLVTVSSEPKSSDKTHTCPPCPAPEAAGGPSVFLFPPKPKDTLMISRTPEVTCVVVSVSHEDPEVKFNWYVDGVEVHNAKTKPREEQYNSTYRVVSVLTVLHQDWLNGKEYKCKVSNKALPAPIEKTISKAKGQPREPQVYVYPPSREEMTKNQVSLTCLVKGFYPSDIAVEWESNGQPENNYKTTPPVLDSDGSFALVSKLTVDKSRWQQGNVFSCSVMHEALHNHYTQKSLSLSPG | – | – | – | – | – | – | 0.016 | 87.3
DL3B583 (bispecific antibody, also called CD3W245-HL-scFv; DL3B279-Fab) heavy: QVQLVQSGAEVKKPGASVKVSCKASGNTFTNYYIHWVRQAPGQGLEWMGIINPSGGSTSYAQKLQGRMTMTRDTSTSTVYMELSSLRSEDTAVYFCARQGPFIGDAFDIWGQGTMVTVSSASTKGPSVFPLAPSSKSTSGGTAALGCLVKDYFPEPVTVSWNSGALTSGVHTFPAVLQSSGLYSLSSVVTVPSSSLGTQTYICNVNHKPSNTKVDKKVEPKSCDKTHTCPPCPAPEAAGGPSVFLFPPKPKDTLMISRTPEVTCVVVSVSHEDPEVKFNWYVDGVEVHNAKTKPREEQYNSTYRVVSVLTVLHQDWLNGKEYKCKVSNKALPAPIEKTISKAKGQPREPQVYVLPPSREEMTKNQVSLLCLVKGFYPSDIAVEWESNGQPENNYLTWPPVLDSDGSFFLYSKLTVDKSRWQQGNVFSCSVMHEALHNHYTQKSLSLSPG light: DIQMTQSPSSLSASVGDRVTITCRASQGISNYLAWFQQKPGKAPKSLIYAASSLQSGVPSKFSGSGSGTDFTLTISSLQPEDFATYYCQQYNSYPYTFAQGTKLEIKRTVAAPSVFIFPPSDEQLKSGTASVVCLLNNFYPREAKVQWKVDNALQSGNSQESVTEQDSKDSTYSLSSTLTLSKADYEKHKVYACEVTHQGLSSPVTKSFNRGEC scFv: EVQLVESGGGLVKPGGSLRLSCAASGFTFSRYNMNWVRQAPGKGLEWVSSISTSSNYIYYADSVKGRFTFSRDNAKNSLDLQMSGLRAEDTAIYYCTRGWGPFDYWGQGTLVTVSSGGSEGKSSGSGSESKSTGGSDIQMTQSPSSLSASVGDRVTITCRARQSIGTAIHWYQQKPGKAPKLLIKYASESISGVPSRFSGSGSGTDFTLTISSLQPEDFATYYCQQSGSWPYTFGQGTKLEIKEPKSSDKTHTCPPCPAPEAAGGPSVFLFPPKPKDTLMISRTPEVTCVVVSVSHEDPEVKFNWYVDGVEVHNAKTKPREEQYNSTYRVVSVLTVLHQDWLNGKEYKCKVSNKALPAPIEKTISKAKGQPREPQVYVYPPSREEMTKNQVSLTCLVKGFYPSDIAVEWESNGQPENNYKTTPPVLDSDGSFALVSKLTVDKSRWQQGNVFSCSVMHEALHNHYTQKSLSLSPG | – | – | – | – | – | – | 0.016 | 99.8
DL3B587 (bispecific antibody, human IgG1, kappa, L234A L235A, also called CD3W245-Fab; DL3B279-LH-scFv) scFv: DIQMTQSPSSLSASVGDRVTITCRASQGISNYLAWFQQKPGKAPKSLIYAASSLQSGVPSKFSGSGSGTDFTLTISSLQPEDFATYYCQQYNSYPYTFAQGTKLEIKGGSEGKSSGSGSESKSTGGSQVQLVQSGAEVKKPGASVKVSCKASGNTFTNYYIHWVRQAPGQGLEWMGIINPSGGSTSYAQKLQGRMTMTRDTSTSTVYMELSSLRSEDTAVYFCARQGPFIGDAFDIWGQGTMVTVSSEPKSSDKTHTCPPCPAPEAAGGPSVFLFPPKPKDTLMISRTPEVTCVVVSVSHEDPEVKFNWYVDGVEVHNAKTKPREEQYNSTYRVVSVLTVLHQDWLNGKEYKCKVSNKALPAPIEKTISKAKGQPREPQVYVLPPSREEMTKNQVSLLCLVKGFYPSDIAVEWESNGQPENNYLTWPPVLDSDGSFFLYSKLTVDKSRWQQGNVFSCSVMHEALHNHYTQKSLSLS heavy: EVQLVESGGGLVKPGGSLRLSCAASGFTFSRYNMNWVRQAPGKGLEWVSSISTSSNYIYYADSVKGRFTFSRDNAKNSLDLQMSGLRAEDTAIYYCTRGWGPFDYWGQGTLVTVSSASTKGPSVFPLAPSSKSTSGGTAALGCLVKDYFPEPVTVSWNSGALTSGVHTFPAVLQSSGLYSLSSVVTVPSSSLGTQTYICNVNHKPSNTKVDKKVEPKSCDKTHTCPPCPAPEAAGGPSVFLFPPKPKDTLMISRTPEVTCVVVSVSHEDPEVKFNWYVDGVEVHNAKTKPREEQYNSTYRVVSVLTVLHQDWLNGKEYKCKVSNKALPAPIEKTISKAKGQPREPQVYVYPPSREEMTKNQVSLTCLVKGFYPSDIAVEWESNGQPENNYKTTPPVLDSDGSFALVSKLTVDKSRWQQGNVFSCSVMHEALHNHYTQKSLSLSPG light: DIQMTQSPSSLSASVGDRVTITCRARQSIGTAIHWYQQKPGKAPKLLIKYASESISGVPSRFSGSGSGTDFTLTISSLQPEDFATYYCQQSGSWPYTFGQGTKLEIKRTVAAPSVFIFPPSDEQLKSGTASVVCLLNNFYPREAKVQWKVDNALQSGNSQESVTEQDSKDSTYSLSSTLTLSKADYEKHKVYACEVTHQGLSSPVTKSFNRGEC | – | – | – | – | – | – | 0.031 | 83.3
MHGB669 (antibody, human IgG1, kappa, V domains shown, IgG1) VH: QVQLQQSGPGLVRPSQTLSVTCAISGDSVSSNSASWNWIRQSPSRGLEWLGRTYYRSEWFNDYAVSVKSRVTINPDTSKNQLSLQLNSVIPEDTAVYYCAREARIGVAGKGFDYWGQGTLVTVSS VL: not shown | 1700 | 1590 | 1.44 | 0.000453 | 315000 | 616000 | – | –
